Measurements reported in paper PMC3969726, “ArdA proteins from different mobile genetic elements can bind to the EcoKI Type I DNA methyltransferase of E. coli K12^☆” (Biochimica et Biophysica Acta, 2014).

Molecular target: the molecule itself
Assay: SEC; Biosep-SEC-S3000 column; 20 mM Tris-HCl, 20 mM MES, 200 mM NaCl, 10 mM MgCl2, 0.1 mM EDTA, 7 mM 2-mercaptoethanol, pH 6.5; 25 °C; apparent molecular mass against injected monomer concentration, fitted to a monomer-dimer equilibrium; apparent constants; dimer to monomers

B1: V583 ArdA (ArdA protein from Enterococcus faecalis V583, Orf EF2335) (natural protein, UniProt Q832A5 1-166, looked up)
chain: MEQMRVYIANLGKYNEGELVGAWFTPPVDFDEVKERIGLNDDYEEYAIHDYELPFEIDEYTSIEEINRLCGLAEELEGTPIGEVASEIQHAFFNSFEEMVEHVDDIVYYPDCNDMEDLAYQMVNEGYLGDAPENFVRYFNYSSFARDLEIEGNYLVTNRGIFEYPI
notes: ArdA protein, open reading frame EF2335 of Enterococcus faecalis V583; In solution an equilibrium of monomer and dimer; source: overexpressed, purified (DEAE anion exchange chromatography, size exclusion chromatography)
B1 showed a Kd of 980 nM.
